Results: patent US20240158457A1 (MEDIKINE, published 2024)
“And” between values parts separate entries of the source, which are not always exact repeats. Equal values may be shown once. Read-outs that look alike come from different tables or passages of the source. Where no end group is shown, it is not given here.

B7: IL-18 Binding Protein (IL-18BP) Fc fusion (Fc fusion, not shown: a dimerising Fc or GST)
chain: TPVSQTTTAATASVRSTKDPCPSQPPVFPAAKQCPALEVTWPEVEVPLNGTLSLSCVACSRFPNFSILYWLGNGSFIEHLPGRLWEGSTSRERGSTGTQLCKALVLEQLTPALHSTNFSCVLVDPEQVVQRHVVLAQLWAGLRATLPPTQEALPSSHSSPQQQG

Experiments:
[1] = molecular target: B7; assay: direct binding ELISA; biotinylated peptide on NeutrAvidin, IL-18BP Fc titrated, anti-human IgG Fc-HRP
Procedure: Binding of synthetic monomer peptides to IL-18 Binding Protein (IL-18BP) was measured using a direct binding ELISA. Briefly, 96-well ELISA plates were coated with NeutrAvidin (NA) at 5 μg per well in PBS, washed, then blocked with PBS containing 1% BSA. Wells were washed and representative peptides, synthesized with a C-terminal biotin were diluted to 300 nM in assay buffer and added to the NA coated wells. Wells were washed and serial dilutions starting at 100 nM of IL-18R subunits, IL-18BP from either of two sources (Acro #ILP-H5253 and R&D #119-BP), and control IgG Fc fusions) were added to the wells and incubated for 1 hr at 4° C. Then plates were washed and goat anti-human IgG Fc-HRP (Southern Biotech #2048-05) detection antibody was added for 1 hr. Wells were developed with TMB for 5-15 min and the enzyme reaction was stopped with a H₂SO₄ solution.

[2] = molecular target: T1, human IL-18 receptor (alpha and beta subunits) on HEK-BLUE IL-18 reporter cells (human, UniProt Q13478 19-541; O95256 20-599); assay: cell-based or functional assay
T1 sequence (looked up) 1: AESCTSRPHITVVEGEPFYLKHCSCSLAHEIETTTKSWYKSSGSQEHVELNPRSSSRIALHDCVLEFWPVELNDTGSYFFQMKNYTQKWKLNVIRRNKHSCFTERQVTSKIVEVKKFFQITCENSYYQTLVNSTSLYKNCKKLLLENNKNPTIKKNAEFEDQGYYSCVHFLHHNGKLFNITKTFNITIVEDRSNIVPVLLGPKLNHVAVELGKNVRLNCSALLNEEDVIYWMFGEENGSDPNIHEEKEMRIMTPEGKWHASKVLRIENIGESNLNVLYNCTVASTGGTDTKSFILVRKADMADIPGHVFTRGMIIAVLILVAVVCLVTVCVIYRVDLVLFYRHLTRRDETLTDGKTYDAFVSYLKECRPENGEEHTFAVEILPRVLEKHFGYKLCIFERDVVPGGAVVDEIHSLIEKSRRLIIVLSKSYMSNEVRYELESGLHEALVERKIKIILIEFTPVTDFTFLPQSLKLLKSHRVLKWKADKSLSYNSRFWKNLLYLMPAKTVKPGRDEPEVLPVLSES
T1 sequence (looked up) 2: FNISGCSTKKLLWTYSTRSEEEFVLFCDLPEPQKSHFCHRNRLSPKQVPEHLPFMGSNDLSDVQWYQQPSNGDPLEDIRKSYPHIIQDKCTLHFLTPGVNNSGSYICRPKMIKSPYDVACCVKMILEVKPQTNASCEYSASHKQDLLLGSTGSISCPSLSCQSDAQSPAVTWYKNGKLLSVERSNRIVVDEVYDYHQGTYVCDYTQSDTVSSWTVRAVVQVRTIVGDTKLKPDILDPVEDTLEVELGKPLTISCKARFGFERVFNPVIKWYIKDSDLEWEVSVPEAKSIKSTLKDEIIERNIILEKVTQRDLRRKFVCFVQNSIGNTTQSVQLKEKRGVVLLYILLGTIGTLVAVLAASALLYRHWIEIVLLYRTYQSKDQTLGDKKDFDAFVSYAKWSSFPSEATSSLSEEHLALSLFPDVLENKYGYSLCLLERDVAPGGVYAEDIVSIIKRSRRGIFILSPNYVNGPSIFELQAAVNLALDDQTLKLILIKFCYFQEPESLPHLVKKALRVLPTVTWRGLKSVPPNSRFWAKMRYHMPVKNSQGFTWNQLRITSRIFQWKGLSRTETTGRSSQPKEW

[3] = molecular target: T1, human IL-18 receptor (alpha and beta …); assay: cell-based or functional assay; remark: listed apart in the source
[4] = molecular target: T2, Human recombinant IL-18 (R&D Systems #9124-IL-050/CF) (human, UniProt Q14116 1-193); assay: cell-based or functional assay
T2 sequence: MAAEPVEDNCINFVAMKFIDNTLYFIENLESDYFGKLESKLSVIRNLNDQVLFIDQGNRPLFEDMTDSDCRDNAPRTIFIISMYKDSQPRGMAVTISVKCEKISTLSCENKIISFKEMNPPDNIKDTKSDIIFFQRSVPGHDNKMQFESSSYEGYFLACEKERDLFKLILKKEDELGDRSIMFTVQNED

B1: C-terminally biotinylated form of peptide 5C09 (peptide)
peptide: GGCPNWLSDHLSEIWCGG-biotin
modifications: cysteine pairing not given here
[1]
  binding result: no binding (tested: 100 nM)

B2: biotinylated alpha synthetic F1a Consensus Construct (peptide)
peptide: GGELCWRPFSFVDCEEGG-biotin
modifications: cysteine pairing not given here
notes: also called bn-alpha synthetic F1a Consensus Construct; alpha synthetic F1 peptide, C-terminal biotinylated form
[1]
  binding result: no binding (tested: 100 nM)

B3: Dimer 3 (designed binder)
chain: GGLCWYFGGTVRGPCLPAPAPAPAPAPAPAPAFFECFYSPGHEWCIPSGG
modifications: not fully specified; cysteine pairing not given here; also: linker of formula V (drawing, may hold non-peptide parts) between beta and alpha moieties
[2]
  potency (EC50), HEK-BLUE IL-18 reporter assay (SEAP): < 10 nM
[3]
  efficacy (% maximum signal (Emax) vs. IL-18 in reporter assay): 36%
  potency (EC50), HEK-BLUE IL-18 reporter assay (SEAP): < 30 nM

B4: biotinylated beta family 2 synthetic construct (peptide)
peptide: GGLCWYFGGTVRGPCLGG-biotin
modifications: cysteine pairing not given here
notes: also called bn-beta family 2 synthetic construct
[1]
  binding result: no binding (tested: 100 nM)

B5: Dimer 1 (designed binder)
chain: GGCPNWLSDHLSEIWCPAPAPAPAPAPAPAPAICWVPFHYLDELMCTGG
modifications: not fully specified; cysteine pairing not given here; also: linker of formula V (drawing, may hold non-peptide parts) between beta and alpha moieties
[3]
  efficacy (% maximum signal (Emax) vs. IL-18 in reporter assay): 17%
  potency (EC50), HEK-BLUE IL-18 reporter assay (SEAP): < 1000 nM

B6: biotinylated 4D07 (peptide)
peptide: GGICWVPFHYLDELMCTGG-biotin
modifications: cysteine pairing not given here
notes: also called bn4D07
[1]
  binding result: no binding (tested: 100 nM)

## B7
[4]
  IC50, inhibition of IL-18 bioactivity in HEK-BLUE IL-18 reporter assay: ~1 nM

B8: Dimer 2 (designed binder)
chain: GGCPNWLSDHLSEIWCPAPAPAPAPAPAPAPAFFECFYSPGHEWCIPSGG
modifications: not fully specified; cysteine pairing not given here; also: linker of formula V (drawing, may hold non-peptide parts) between beta and alpha moieties
[3]
  efficacy (% maximum signal (Emax) vs. IL-18 in reporter assay): 34%
  potency (EC50), HEK-BLUE IL-18 reporter assay (SEAP): > 100 nM and < 300 nM

B9: biotinylated 7C06 (peptide)
peptide: GGFFECFYSPGHEWCIPSGG-biotin
modifications: cysteine pairing not given here
notes: also called bn7C06
[1]
  binding result: no binding (tested: 100 nM)
